According to PMC10538386 (Bioconjugate chemistry, 2023):
Residue numbers refer to the chain shown, from its start. Names may count otherwise.

B1: PhMV Cys1+2 (A31C S137C) coat protein, assembled as virus-like particles (natural protein, Physalis mottle virus)
chain: MDSSEVVKVKQASIPAPGSILSQPNTEQSPCIVLPFQFEATTFGTAETAAQVSLQTADPITKLTAPYRHAQIVECKAILTPTDLAVSNPLTVYLAWVPANSPATPTQILRVYGGQSFVLGGAISAAKTIEVPLNLDCVNRMLKDSVTYTDTPKLLAYSRAPTNPSKIPTASIQISGRIRLSKPMLIAN
B2: PhMV Cys2 (S137C) coat protein, assembled as virus-like particles (natural protein, Physalis mottle virus)
chain: B1 chain with C31A
B3: PhMV Cys1 (A31C) coat protein, assembled as virus-like particles (natural protein, Physalis mottle virus)
chain: B1 chain with C137S

Legend:
[1] = biological target: the molecule itself; experiment: transmission electron microscopy
SEC = biological target: the molecule itself; experiment: SEC

Row | Protein | binding result [1] | binding result (SEC)
1 | B1 | binds | 
2 | B2 |  | binds
3 | B3 |  | binds
